US20240043508A1

B1: K202.A (bispecific antibody)
heavy: EVQLLESGGGLVQPGGSLRLSCAASGFTFSDYAMSWVRQAPGKGLEWVSWIYSGSGNKYYADSVKGRFTISRDNSKNTLYLQMNSLRAEDTAVYYCARFPIARTSNSQSSYDGMDVWGQGTLVTVSSASTKGPSVFPLAPCSRSTSESTAALGCLVKDYFPEPVTVSWNSGALTSGVHTFPAVLQSSGLYSLSSVVTVPSSSLGTKTYTCNVDHKPSNTKVDKRVESKYGPPCPPCPPCPAPEFLGGPSVFLFPPKPKDTLMISRTPEVTCVVVDVSQEDPEVQFNWYVDGVEVHNAKTKPREEQFNSTYRVVSVLTVLHQDWLNGKEYKCKVSNKGLPSSIEKGQPREPQVYTLPPSQEEMTKNQVSLTCLVKGFYPSDIAVEWESNGQPENNYKTTPPVLDSDGSFFLYSRLTVDKSRWQEGNVFSCSVMHEALHNHYTQKSLSLSLGK
light: QSVLTQPPSASGTPGQRVTISCSGSSSNIGSNAVSWYQQLPGTAPKLLIYADNKRPSGVPDRFSGSKSGTSASLAISGLRSEDEADYYCGAWDSSLNAYVFGGGTKLTVLVAAPSVFIFPPSDEQLKSGTASVVCLLNNFYPREAKVQWKVDNALQSGNSQESVTEQDSKDSTYSLSSTLTLSKADYEKHKVYACEVTHQGLSSPVTKSFNRGEC
scFv: EVQLLESGGGLVQPGGSLRLSCAASGFTFSSYDMSWVRQAPGKGLEWVSGISYSGGSTYYADSVKGRFTISRDNSKNTLYLQMNSLRAEDTAVYYCARDVNFVPLVTFDYWGQGTLVTVSSGGGGSGGGGSGGGGSQSVLTQPPSASGTPGQRVTLSCTGSSSNIGSNSVTWYQQLPGTAPKLLIYDDNQRPSGVPDRFSGSKSGTSASLAISGLRSEDEADYYCGTWDYSLSAYVFGGGTKLTVL
B2: K202.B (bispecific antibody)
heavy: B1 heavy
light: B1 light
scFv: B1 scFv
B3: RD3 (antibody, V domains shown)
VH: EVQLLESGGGLVQPGGSLRLSCAASGFTFSDYAMSWVRQAPGKGLEWVSWIYSGSGNKYYADSVKGRFTISRDNSKNTLYLQMNSLRAEDTAVYYCARFPIARTSNSQSSYDGMDVWGQGTLVTVSS
VL: QSVLTQPPSASGTPGQRVTISCSGSSSNIGSNAVSWYQQLPGTAPKLLIYADNKRPSGVPDRFSGSKSGTSASLAISGLRSEDEADYYCGAWDSSLNAYVFGGGTKLTVL

Molecular target: SARS-CoV-2 S protein of the B.1 (D614G) variant, on pseudotyped lentiviral particles (SARS-CoV-2)
Test: cell-based or functional assay

Binder	IC50 (nM), pseudotyped virus infection [nM]	IC50 (nM), pseudovirus neutralization, luciferase in 293T/hACE2 cells [nM]
B1	0.39	–
B2	0.12	–
B3	2.22	1.4
